Measured values: US20160311911A1, “METHODS FOR TREATING ALLERGIC AIRWAY INFLAMMATION” (priority 2015, published 2016)

Columns and labels:
[1] = biological target: TLR4, CD14 and MD2 on TCM^Hi HEK 293 cells (TLR4^Hi, CD14^Hi, MD2^Hi; InvivoGen) (UniProt O00206); test: flow cytometry; HEK 293 cells incubated with 100 ug/mL BODIPY-RWPE for 30 minutes on ice, then washed
[2] = biological target: TLR4 on TLR4^Hi HEK 293 cells (TLR4^Hi, CD14^Null, MD2^Null; InvivoGen) (UniProt O00206); test: as above
Sequence of TLR4 on TLR4^Hi HEK 293 cells (TLR4^Hi, CD14^Null, MD2^Null; InvivoGen) (O00206 24-839 limits assumed): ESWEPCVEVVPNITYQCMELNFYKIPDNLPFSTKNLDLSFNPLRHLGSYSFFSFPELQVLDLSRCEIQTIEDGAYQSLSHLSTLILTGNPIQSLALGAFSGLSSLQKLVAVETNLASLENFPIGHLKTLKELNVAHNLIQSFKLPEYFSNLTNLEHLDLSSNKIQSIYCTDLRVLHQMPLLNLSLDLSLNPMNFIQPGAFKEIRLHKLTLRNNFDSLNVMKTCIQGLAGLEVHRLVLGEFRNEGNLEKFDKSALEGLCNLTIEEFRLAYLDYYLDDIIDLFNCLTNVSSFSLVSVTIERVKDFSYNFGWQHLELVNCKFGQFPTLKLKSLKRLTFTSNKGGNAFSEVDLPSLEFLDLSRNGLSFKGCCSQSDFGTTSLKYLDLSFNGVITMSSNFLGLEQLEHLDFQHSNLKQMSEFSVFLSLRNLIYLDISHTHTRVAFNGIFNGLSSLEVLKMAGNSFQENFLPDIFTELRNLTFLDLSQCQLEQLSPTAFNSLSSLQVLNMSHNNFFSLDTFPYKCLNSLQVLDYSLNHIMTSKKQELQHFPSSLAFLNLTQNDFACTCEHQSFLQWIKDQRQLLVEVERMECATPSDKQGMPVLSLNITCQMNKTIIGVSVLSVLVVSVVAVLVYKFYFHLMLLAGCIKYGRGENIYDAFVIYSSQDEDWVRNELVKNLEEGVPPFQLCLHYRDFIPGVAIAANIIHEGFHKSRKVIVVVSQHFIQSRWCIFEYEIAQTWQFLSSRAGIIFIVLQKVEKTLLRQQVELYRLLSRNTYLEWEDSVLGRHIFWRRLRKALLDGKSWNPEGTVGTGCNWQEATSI

Sequence of TLR4, CD14 and MD2 on TCM^Hi HEK 293 cells (TLR4^Hi, CD14^Hi, MD2^Hi; InvivoGen) (O00206 24-839 limits assumed, chain 1 of 3): as the sequence (O00206 24-839 limits assumed) above
Sequence of TLR4, CD14 and MD2 on TCM^Hi HEK 293 cells (TLR4^Hi, CD14^Hi, MD2^Hi; InvivoGen) (P08571 20-345 limits assumed, chain 2 of 3, further chain): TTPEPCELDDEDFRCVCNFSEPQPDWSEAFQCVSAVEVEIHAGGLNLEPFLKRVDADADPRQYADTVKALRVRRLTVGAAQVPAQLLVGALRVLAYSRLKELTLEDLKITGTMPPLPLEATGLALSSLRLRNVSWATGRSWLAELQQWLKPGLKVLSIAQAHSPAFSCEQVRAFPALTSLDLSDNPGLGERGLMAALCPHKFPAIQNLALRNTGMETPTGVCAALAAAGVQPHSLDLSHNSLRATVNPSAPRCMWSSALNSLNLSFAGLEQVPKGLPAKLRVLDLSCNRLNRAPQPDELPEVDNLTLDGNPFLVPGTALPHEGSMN
Sequence of TLR4, CD14 and MD2 on TCM^Hi HEK 293 cells (TLR4^Hi, CD14^Hi, MD2^Hi; InvivoGen) (Q9Y6Y9 19-160 limits assumed, chain 3 of 3, further chain): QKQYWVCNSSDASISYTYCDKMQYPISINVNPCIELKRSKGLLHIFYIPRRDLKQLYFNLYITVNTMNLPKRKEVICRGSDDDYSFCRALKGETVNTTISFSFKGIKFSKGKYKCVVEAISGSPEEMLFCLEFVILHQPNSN

BODIPY-RWPE staining (% by FACS) [1]: 12.9%
BODIPY-RWPE staining (% by FACS) [2]: < 3%
Substance: BODIPY-labeled ragweed pollen extract (RWPE)
